Source: the supplement of paper PMC11246515
± gives the standard deviation of the averaged measurements.

Assay: total protein half-life in vivo (active degradation + dilution); higher = more stable protein
[1] = E. coli NCM3722 delta-clpP delta-lon delta-hslV, growth: N-lim chemostat, doubling time 6 h
[2] = E. coli NCM3722 delta-lon, growth: N-lim chemostat, doubling time 6 h
[3] = E. coli NCM3722 delta-smpB, growth: N-lim chemostat, doubling time 6 h
[4] = wild type E. coli NCM3722, growth: C-lim chemostat, doubling time 3 h
[5] = wild type E. coli NCM3722, growth: C-lim chemostat, doubling time 6 h
[6] = wild type E. coli NCM3722, growth: C-lim chemostat, doubling time 12 h
[7] = wild type E. coli NCM3722, growth: P-lim chemostat, doubling time 6 h
[8] = wild type E. coli NCM3722, growth: P-lim chemostat, doubling time 12 h
[9] = E. coli NCM3722 delta-clpP, growth: N-lim chemostat, doubling time 6 h
[10] = E. coli NCM3722 delta-hslV, growth: N-lim chemostat, doubling time 6 h
[11] = wild type E. coli NCM3722, growth: N-lim chemostat, doubling time 6 h
[12] = wild type E. coli NCM3722, growth: N-lim chemostat, doubling time 12 h

Sequence | total protein half-life in vivo [1] [h] | total protein half-life in vivo [2] [h] | total protein half-life in vivo [3] [h] | total protein half-life in vivo [4] [h] | total protein half-life in vivo [5] [h] | total protein half-life in vivo [6] [h] | total protein half-life in vivo [7] [h] | total protein half-life in vivo [8] [h] | total protein half-life in vivo [9] [h] | total protein half-life in vivo [10] [h] | total protein half-life in vivo [11] [h] | total protein half-life in vivo [12] [h]
MYERYAGLIFDMDGTILDTEPTHRKAWREVLGHYGLQYDIQAMIALNGSPTWRIAQAIIELNQADLDPHALAREKTEAVRSMLLDSVEPLPLVDVVKSWHGRRPMAVGTGSESAIAEALLAHLGLRHYFDAVVAADHVKHHKPAPDTFLLCAQRMGVQPTQCVVFEDADFGIQAARAAGMDAVDVRLL | 5.33 ± 0.13 | 4.41 | 1.29 | 2.62 ± 0.62 | 4.33 ± 0.098 | 6.18 | 2.46 ± 0.33 | 7.98 ± 0.48 | – | – | – | –
MYIGIDLGTSGVKVILLNEQGEVVAAQTEKLTVSRPHPLWSEQDPEQWWQATDRAMKALGDQHSLQDVKALGIAGQMHGATLLDAQQRVLRPAILWNDGRCAQECTLLEARVPQSRVITGNLMMPGFTAPKLLWVQRHEPEIFRQIDKVLLPKDYLRLRMTGEFASDMSDAAGTMWLDVAKRDWSDVMLQACDLSRDQMPALYEGSEITGALLPEVAKAWGMATVPVVAGGGDNAAGAVGVGMVDANQAMLSLGTSGVYFAVSEGFLSKPESAVHSFCHALPQRWHLMSVMLSAASCLDWAAKLTGLSNVPALIAAAQQADESAEPVWFLPYLSGERTPHNNPQAKGVFFGLTHQHGPNELARAVLEGVGYALADGMDVVHACGIKPQSVTLIGGGARSEYWRQMLADISGQQLDYRTGGDVGPALGAARLAQIAANPEKSLIELLPQLPLEQSHLPDAQRYAAYQPRRETFRRLYQQLLPLMA | 5.25 ± 0.23 | 4.82 ± 0.32 | 4.5 ± 0.047 | 3.52 ± 0.21 | 5.87 ± 0.13 | 9.67 ± 1.8 | 6.62 ± 0.53 | 12.5 ± 0.58 | 4.96 ± 0.27 | 5.75 ± 1.6 | 4.57 ± 0.12 | 8 ± 1.8
MYKTIIMPVDVFEMELSDKAVRHAEFLAQDDGVIHLLHVLPGSASLSLHRFAADVRRFEEHLQHEAQERLQTMVSHFTIDPSRIKQHVRFGSVRDEVNELAEELGADVVVIGSRNPSISTHLLGSNASSVIRHANLPVLVVR | – | 4.71 ± 0.33 | 4.18 ± 0.48 | 3.06 ± 0.038 | 6.27 | 12 ± 1.8 | 6.06 ± 0.33 | 10.7 | – | 4.48 | 3.99 ± 0.43 | 6.48 ± 0.34
MYLSKVIIARAWSRDLYQLHQGLWHLFPNRPDAARDFLFHVEKRNTPEGCHVLLQSAQMPVSTAVATVIKTKQVEFQLQVGVPLYFRLRANPIKTILDNQKRLDSKGNIKRCRVPLIKEAEQIAWLQRKLGNAARVEDVHPISERPQYFSGDGKSGKIQTVCFEGVLTINDAPALIDLVQQGIGPAKSMGCGLLSLAPL | 5.96 ± 0.57 | – | – | 1.61 | – | – | – | – | – | – | – | –
MYPVDLHMHTVASTHAYSTLSDYIAQAKQKGIKLFAITDHGPDMEDAPHHWHFINMRIWPRVVDGVGILRGIEANIKNVDGEIDCSGKMFDSLDLIIAGFHEPVFAPHDKATNTQAMIATIASGNVHIISHPGNPKYEIDVKAVAEAAAKHQVALEINNSSFLHSRKGSEDNCREVAAAVRDAGGWVALGSDSHTAFTMGEFEECLKILDAVDFPPERILNVSPRRLLNFLESRGMAPIAEFADL | 4.97 ± 0.41 | 4.67 ± 0.18 | 3.925 ± 0.00062 | 3.11 ± 0.53 | 4.99 ± 0.23 | 9.55 ± 1.1 | 5.73 ± 0.19 | 11.9 ± 0.49 | 4.01 ± 0.17 | 3.945 ± 0.0077 | 4.04 ± 0.4 | 6.47 ± 0.46
MYQHHNWQGALLDYPVSKVVCVGSNYAKHIKEMGSAVPEEPVLFIKPETALCDLRQPLAIPSDFGSVHHEVELAVLIGATLRQATEEHVRKAIAGYGVALDLTLRDVQGKMKKAGQPWEKAKAFDNSCPLSGFIPAAEFTGDPQNTTLSLSVNGEQRQQGTTADMIHKIVPLIAYMSKFFTLKAGDVVLTGTPDGVGPLQSGDELTVTFDGHSLTTRVL | 6.01 ± 0.48 | 5.67 ± 0.93 | 4.95 ± 0.3 | 3.26 ± 0.39 | 6.22 ± 0.61 | 11.2 ± 0.037 | 5.856 ± 0.052 | 12.6 ± 0.54 | 4.64 ± 0.98 | 5.44 ± 0.96 | 5.18 ± 0.86 | 10.1 ± 0.033
MYQPDFPPVPFRSGLYPVVDSVQWIERLLDAGVRTLQLRIKDRRDEEVEADVVAAIALGRRYNARLFINDYWRLAIKHQAYGVHLGQEDLQATDLNAIRAAGLRLGVSTHDDMEIDVALAARPSYIALGHVFPTQTKQMPSAPQGLEQLARHVERLADYPTVAIGGISLARAPAVIATGVGSIAVVSAITQAADWRLATAQLLEIAGVGDE | 6.1 ± 1.1 | 4.173 ± 0.028 | 2.77 ± 0.045 | 2.31 ± 0.52 | 4.76 ± 0.58 | 6.78 ± 0.74 | 2.01 ± 0.57 | 3.48 ± 0.66 | 3.05 ± 0.11 | 3.34 ± 0.23 | 3.01 ± 0.54 | 5.18 ± 0.5
MYQVVASDLDGTLLSPDHTLSPYAKETLKLLTARGINFVFATGRHHVDVGQIRDNLEIKSYMITSNGARVHDLDGNLIFAHNLDRDIASDLFGVVNDNPDIITNVYRDDEWFMNRHRPEEMRFFKEAVFQYALYEPGLLEPEGVSKVFFTCDSHEQLLPLEQAINARWGDRVNVSFSTLTCLEVMAGGVSKGHALEAVAKKLGYSLKDCIAFGDGMNDAEMLSMAGKGCIMGSAHQRLKDLHPELEVIGTNADDAVPHYLRKLYLS | 3.6 ± 0.88 | 3.67 ± 0.27 | 3.31 ± 0.055 | – | 4.88 ± 0.24 | 8.98 ± 0.53 | 4.82 ± 0.18 | 10.2 ± 0.16 | 2.94 ± 0.046 | 3.53 ± 0.15 | 3.39 ± 0.091 | 5.36 ± 0.23
